Measurements published in patent US20200216833A1.

Molecular target: SH2 domain of Abl1 kinase fused to 434 cI repressor (UniProt P16117)
Test: cell-based or functional assay

ON propagation on this AP combo, against the wt HA4 monobody: 105 fold lower
Substance: HA4 Y84A monobody (from UniProt P0A800 1-91) (designed binder)
